Source: patent US20240408238

Protein	in vitro DNA cleavage by Cas9:sgRNA in the presence of Acr (10:1 Acr:Cas9 molar ratio) (AcrIIC1Nme)	in vitro DNA cleavage by Cas9:sgRNA in the presence of Acr (10:1 Acr:Cas9 molar ratio) (AcrIIC2Nme)	in vitro DNA cleavage by Cas9:sgRNA in the presence of Acr (10:1 Acr:Cas9 molar ratio) (AcrIIC3Nme)	in vitro DNA cleavage by Cas9:sgRNA in the presence of Acr (10:1 Acr:Cas9 molar ratio) (AcrIIC4Hpa)	in vitro DNA cleavage by Cas9:sgRNA in the presence of Acr (10:1 Acr:Cas9 molar ratio) (AcrIIC5Smu)	in vitro DNA cleavage by Cas9:sgRNA in the presence of Acr (10:1 Acr:Cas9 molar ratio) (AcrE2)
Nme2Cas9 (recombinant, purified; Neisseria meningitidis strain De11444) (protein) PKKKRKVNAMAAFKPNPINYILGLDIGIASVGWAMVEIDEEENPIRLIDLGVRVFERAEVPKTGDSLAMARRLARSVRRLTRRRAHRLLRARRLLKREGVLQAADFDENGLIKSLPNTPWQLRAAALDRKLTPLEWSAVLLHLIKHRGYLSQRKNEGETADKELGALLKGVANNAHALQTGDFRTPAELALNKFEKESGHIRNQRGDYSHTFSRKDLQAELILLFEKQKEFGNPHVSGGLKEGIETLLMTQRPALSGDAVQKMLGHCTFEPAEPKAAKNTYTAERFIWLTKLNNLRILEQGSERPLTDTERATLMDEPYRKSKLTYAQARKLLGLEDTAFFKGLRYGKDNAEASTLMEMKAYHAISRALEKEGLKDKKSPLNLSSELQDEIGTAFSLFKTDEDITGRLKDRVQPEILEALLKHISFDKFVQISLKALRRIVPLMEQGKRYDEACAEIYGDHYGKKNTEEKIYLPPIPADEIRNPVVLRALSQARKVINGVVRRYGSPARIHIETAREVGKSFKDRKEIEKRQEENRKDREKAAAKFREYFPNFVGEPKSKDILKLRLYEQQHGKCLYSGKEINLVRLNEKGYVEIDHALPFSRTWDDSFNNKVLVLGSENQNKGNQTPYEYFNGKDNSREWQEFKARVETSRFPRSKKQRILLQKFDEDGFKECNLNDTRYVNRFLCQFVADHILLTGKGKRRVFASNGQITNLLRGFWGLRKVRAENDRHHALDAVVVACSTVAMQQKITRFVRYKEMNAFDGKTIDKETGKVLHQKTHFPQPWEFFAQEVMIRVFGKPDGKPEFEEADTPEKLRTLLAEKLSSRPEAVHEYVTPLFVSRAPNRKMSGAHKDTLRSAKRFVKHNEKISVKRVWLTEIKLADLENMVNYKNGREIELYEALKARLEAYGGNAKQAFDPKDNPFYKKGGQLVKAVRVEKTQESGVLLNKKNAYTIADNGDMVRVDVFCKVDKKGKNQYFIVPIYAWQVAENILPDIDCKGYRIDDSYTFCFSLHKYDLIAFQKDEKSKVEFAYYINCDSSNGRFYLAWHDKGSKEQQFRISTQNLVLIQKYQVNELGKEIRPCRLKKRPPVRGGGGSGGGGSGGGGSPAAKKKKLDGGGSKRPAATKKAGQAKKKK	completely inhibited Nme2Cas9	completely inhibited Nme2Cas9	completely inhibited Nme2Cas9	completely inhibited Nme2Cas9	did not inhibit Nme2Cas9 in vitro even at a 10-fold molar excess	
Nme1Cas9 (Cas9 of Neisseria meningitidis strain 8013) (protein) MAAFKPNSINYILGLDIGIASVGWAMVEIDEEENPIRLIDLGVRVFERAEVPKTGDSLAMARRLARSVRRLTRRRAHRLLRTRRLLKREGVLQAANFDENGLIKSLPNTPWQLRAAALDRKLTPLEWSAVLLHLIKHRGYLSQRKNEGETADKELGALLKGVAGNAHALQTGDFRTPAELALNKFEKESGHIRNQRSDYSHTFSRKDLQAELILLFEKQKEFGNPHVSGGLKEGIETLLMTQRPALSGDAVQKMLGHCTFEPAEPKAAKNTYTAERFIWLTKLNNLRILEQGSERPLTDTERATLMDEPYRKSKLTYAQARKLLGLEDTAFFKGLRYGKDNAEASTLMEMKAYHAISRALEKEGLKDKKSPLNLSPELQDEIGTAFSLFKTDEDITGRLKDRIQPEILEALLKHISFDKFVQISLKALRRIVPLMEQGKRYDEACAEIYGDHYGKKNTEEKIYLPPIPADEIRNPVVLRALSQARKVINGVVRRYGSPARIHIETAREVGKSFKDRKEIEKRQEENRKDREKAAAKFREYFPNFVGEPKSKDILKLRLYEQQHGKCLYSGKEINLGRLNEKGYVEIDHALPFSRTWDDSFNNKVLVLGSENQNKGNQTPYEYFNGKDNSREWQEFKARVETSRFPRSKKQRILLQKFDEDGFKERNLNDTRYVNRFLCQFVADRMRLTGKGKKRVFASNGQITNLLRGFWGLRKVRAENDRHHALDAVVVACSTVAMQQKITRFVRYKEMNAFDGKTIDKETGEVLHQKTHFPQPWEFFAQEVMIRVFGKPDGKPEFEEADTLEKLRTLLAEKLSSRPEAVHEYVTPLFVSRAPNRKMSGQGHMETVKSAKRLDEGVSVLRVPLTQLKLKDLEKMVNREREPKLYEALKARLEAHKDDPAKAFAEPFYKYDKAGNRTQQVKAVRVEQVQKTGVWVRNHNGIADNATMVRVDVFEKGDKYYLVPIYSWQVAKGILPDRAVVQGKDEEDWQLIDDSFNFKFSLHPNDLVEVITKKARMFGYFASCHRGTGNINIRIHDLDHKIGKNGILEGIGVKTALSFQKYQIDELGKEIRPCRLKKRPPVR	all 5 families inhibited Nme1Cas9	all 5 families inhibited Nme1Cas9	all 5 families inhibited Nme1Cas9	all 5 families inhibited Nme1Cas9	all 5 families inhibited Nme1Cas9	AcrE2 failed to do so
